The chains are these.
B1: HDV Ribozyme (parent)
chain: GGCCGGCAUGGUCCCAGCCUCCUCGCUGGCGCCGGCUGGGCAACAUUCCGAGGGGACCGUCCCCUCGGUAAUGGCGAAUGGGACCCA

In the RNAGym collection of RNA variant scans (doi:10.7554/elife.80360) one finds self-cleavage data, which are given here for 64 variants.

The variants in the series derive from B1. Kind of series: self-cleavage, relative activity (ratio to wild type); higher = more cleavage; co-transcriptional.
Turning to GGCCGGCAUGACCCCAGCCUCCUCGCUGGCGCCGGCUGGGCAACAUUCCGAGGGGACCGUCCCCUCGGUAAUGGCGAAUGGGACCCA, the self-cleavage was found to be 0.0415. The figure for GGCCGGCAUGAACCCAGCCUCCUCGCUGGCGCCGGCUGGGCAACAUUCCGAGGGGACCGUCCCCUCGGUAAUGGCGAAUGGGACCCA is 0.0831.

On to GGCCGGCAUGAGCCCAGCCUCCUCGCUGGCGCCGGCUGGGCAACAUUCCGAGGGGACCGUCCCCUCGGUAAUGGCGAAUGGGACCCA, for which the self-cleavage was 0.0875.

Regarding GGCCGGCAUGCUCACAGCCUCCUCGCUGGCGCCGGCUGGGCAACAUUCCGAGGGGACCGUCCCCUCGGUAAUGGCGAAUGGGACCCA, the self-cleavage came out at 0.106.

As for GGCCGGCAUGCUCCCAGCCUCCUCGCUGGCGCCGGCUGGGCAACAUUCAGAGGGGACCGUCCCCUCGGUAAUGGCGAAUGGGACCCA, the self-cleavage was determined as 0.388. For the variant GGCCGGCAUGCUGCCAGCCUCCUCGCUGGCGCCGGCUGGGCAACAUUCCGAGGGGACCGUCCCCUCGGUAAUGGCGAAUGGGACCCA, the self-cleavage was found to be 0.0437.

Take GGCCGGCAUGCUUCCAGCCUCCUCGCUGGCGCCGGCUGGGCAACAUUCCGAGGGGACCGUCCCCUCGGUAAUGGCGAAUGGGACCCA: the self-cleavage is 0.0852.

As for GGCCGGCAUGCUCCCAGCCUCCUCGCUGGCGCCGGCUGGGCAACAUUCCGAGGGGACCGUCCCCUCGGUAUUGGCGAAUGGGACCCA, the self-cleavage worked out at 0.252. In the case of GGCCGGCAUGCUCCCAGCCUCCUCGCUGGCGCCGGCUGGGCAACAUUCCGAGGGGACCGUCCCCUCGGUACUGGCGAAUGGGACCCA, the self-cleavage was found to be 0.306. For the variant GGCCGGCAUGCUCCCAGCCUCCUCGCUGGCGCCGGCUGGGCAACAUUCCGAGGGGACCGUCCCCUCGGUAAUGGCGAAUGGGUCCCA, the self-cleavage was found to be 0.119. With GGCCGGCAUGCUCCCAGCCUCCUCGCUGGCGCCGGCUGGGCAACAUUCCGAGGGGACCGUCCCCUCGGUAAUGGCGACUGGGACCCA the figure was 0.0369; with GGCCGGCAUGCUCCCAGCCUCCUCGCUGGCGCCGGCUGGGCAACAUUCCGAGGGGUCCGUCCCCUCGGUAAUGGCGAAUGGGACCCA, 0.111; with GGCCGGCAUGCUCCCAGCCUCCUCGCUGGCGCCGGCUGGGCAACAUUCCGAGGGGCCCGUCCCCUCGGUAAUGGCGAAUGGGACCCA, 0.598. On to GGCCGGCAUGCUCCCAGCCUCCUCGCUGGCGCCGGCUGGGCAACCUUCCGAGGGGACCGUCCCCUCGGUAAUGGCGAAUGGGACCCA, for which the self-cleavage was determined as 0.116.

As for GGCCGGCAUGCUCCCAGCCUCCUCGCUGGCGCCGGCUGGGCAACAUUUCGAGGGGACCGUCCCCUCGGUAAUGGCGAAUGGGACCCA, the self-cleavage amounted to 0.119.

For GGCCGGCAUGCUCCCAGCCUCCUCGCUGGCGCCGGCUGGGCAACAUUGCGAGGGGACCGUCCCCUCGGUAAUGGCGAAUGGGACCCA, the self-cleavage was found to be 0.399. With GGCCGGCAUGCUCCAAGCCUCCUCGCUGGCGCCGGCUGGGCAACAUUCCGAGGGGACCGUCCCCUCGGUAAUGGCGAAUGGGACCCA the figure was 0.0396; with GGCCGGCAUGCUCCUAGCCUCCUCGCUGGCGCCGGCUGGGCAACAUUCCGAGGGGACCGUCCCCUCGGUAAUGGCGAAUGGGACCCA, 0.0554.

Turning to GGCCGGCAUGCUCCCAGCCUCCUUGCUGGCGCCGGCUGGGCAACAUUCCGAGGGGACCGUCCCCUCGGUAAUGGCGAAUGGGACCCA, the self-cleavage came to 0.219.

Consider GGCCGGCAUGCUCCCAGCCUCCUGGCUGGCGCCGGCUGGGCAACAUUCCGAGGGGACCGUCCCCUCGGUAAUGGCGAAUGGGACCCA, for which the self-cleavage is 0.0583.

On to GGCCGGCAUGCUCCCAGCCUCCUAGCUGGCGCCGGCUGGGCAACAUUCCGAGGGGACCGUCCCCUCGGUAAUGGCGAAUGGGACCCA, for which the self-cleavage turned out to be 0.0898. For the variant GGCCGGCAUGCUCCCAGCCUCCUCGCUGGCGCCGGCUGGGCAACAUUCCGAGGGGACCGUCCCCUCGGUAAUGGCGUAUGGGACCCA, the self-cleavage was 0.0462. As for GGCCGGCAUGCUCCCAGCCUCCUCGCUGGCGCCGGCUGGGCAACAUUCCGAGGGGACCGUCCCCUCGGUAAUGGCGGAUGGGACCCA, the self-cleavage is 0.138. Take GGCCGGCAUGCUCCCAGCCUCCUCGCUGGCGCCGGCUGGGCUACAUUCCGAGGGGACCGUCCCCUCGGUAAUGGCGAAUGGGACCCA: the self-cleavage turned out to be 0.0536.

GGCCGGCAUGCUCCCAGCCUCCUCGCUGGCGCCGGCUGGGCGACAUUCCGAGGGGACCGUCCCCUCGGUAAUGGCGAAUGGGACCCA: the self-cleavage amounted to 0.161. As to GGCCGGCAUGAUCCCAGCCUCCUCGCUGGCGCCGGCUGGGCAACAGUCCGAGGGGACCGUCCCCUCGGUAAUGGCGAAUGGGACCCA, the self-cleavage stood at 0.128. Regarding GGCCGGCAUGAUCCCAGCCUCCUCGCUGGCGCCGGCUGGGCAACAAUCCGAGGGGACCGUCCCCUCGGUAAUGGCGAAUGGGACCCA, the self-cleavage was 0.148. In the case of GGCCGGCAUGCUCCCAGCCUCCUCGCUGGCGCGGGCUGGGCAACAUUCCGAGGGGACCGUCCCCUCGGUAAUGGCGAAUGGGACCCA, the self-cleavage came to 0.0396.

Regarding GGCCGGCAUGCUCCCAGCCUCCUCGCUGGCGCAGGCUGGGCAACAUUCCGAGGGGACCGUCCCCUCGGUAAUGGCGAAUGGGACCCA, the self-cleavage is 0.0346. As to GGCCGGCAUGCUCCCAGCCUCCUCGCUGGCGCUGGCUGGGCAACAUUCCGAGGGGACCGUCCCCUCGGUAAUGGCGAAUGGGACCCA, the self-cleavage is 0.256. Turning to GGCCGGCAUGCUCCCAGCCUCCUCGCUGGCGCCGGCUGGGCAAAAUUCCGAGGGGACCGUCCCCUCGGUAAUGGCGAAUGGGACCCA, the self-cleavage was 0.0923.

GGCCGGCAUGCUCCCAGCCUCCUCGCUGGCGCCGGCUGGGCAAUAUUCCGAGGGGACCGUCCCCUCGGUAAUGGCGAAUGGGACCCA: the self-cleavage is 0.0437. GGCCGGCAUGCUCCCAGCCUCCUCGCUGGCGCCGGCUGGGCAAGAUUCCGAGGGGACCGUCCCCUCGGUAAUGGCGAAUGGGACCCA: the self-cleavage worked out at 0. Consider GGCCGGCAUGAUCCCAGCCUCCUCGCUGGCGCCGGCUGGGCAACAUUCCGAGGGGACCGGCCCCUCGGUAAUGGCGAAUGGGACCCA, for which the self-cleavage amounted to 0.399.

For the variant GGCCGGCAUGAUCCCAGCCUCCUCGCUGGCGCCGGCUGGGCAACAUUCCGAGGGGACCGCCCCCUCGGUAAUGGCGAAUGGGACCCA, the self-cleavage was 0.43. For GGCCGGCAUGAUCCCAGCCCCCUCGCUGGCGCCGGCUGGGCAACAUUCCGAGGGGACCGUCCCCUCGGUAAUGGCGAAUGGGACCCA, the self-cleavage came out at 0. Consider GGCCGGCAUGAUCCCAGCCACCUCGCUGGCGCCGGCUGGGCAACAUUCCGAGGGGACCGUCCCCUCGGUAAUGGCGAAUGGGACCCA, for which the self-cleavage was 0.0623. The figure for GGCCGGCAUGAUCCCAGCCGCCUCGCUGGCGCCGGCUGGGCAACAUUCCGAGGGGACCGUCCCCUCGGUAAUGGCGAAUGGGACCCA is 0.0326; for GGCCGGCAUGCUCCCAGCCUACUCGCUGGCGCCGGCUGGGCAACAUUCCGAGGGGACCGUCCCCUCGGUAAUGGCGAAUGGGACCCA it is 0.0755; for GGCCGGCAUGCUCCCAGCCUCCUCGCUGGCGCCGGCUGGGCAACAUUCCGCGGGGACCGUCCCCUCGGUAAUGGCGAAUGGGACCCA it is 0.35.

GGCCGGCAUGAUCCCAGCCUCCUCGCUGGCGCCGGCGGGGCAACAUUCCGAGGGGACCGUCCCCUCGGUAAUGGCGAAUGGGACCCA: the self-cleavage stood at 0.142. GGCCGGCAUGCUCCCAGCCUCCUCGCUGGCGCCGGCUGGGCAACAUUCCGAGGGGAACGUCCCCUCGGUAAUGGCGAAUGGGACCCA: the self-cleavage was determined as 0.453.

GGCCGGCAUGCUCCCAGCCUCCUCGCUGGCGCCGGCUGGGCAACAUUCCGAGGGGAGCGUCCCCUCGGUAAUGGCGAAUGGGACCCA: the self-cleavage was found to be 0.249. The figure for GGCCGGCAUGAUCCCAGCCUCCUCGCUGGCGCCGGCUGGGCAACAUUCCGAGGGGACCGUCCCCUCGGUAACGGCGAAUGGGACCCA is 0.121; for GGCCGGCAUGAUCCCAGCCUCCUCGCUGGCGCCGGCUGGGCAACAUUCCGAGGGGACCGUCCCCUCGGUAAAGGCGAAUGGGACCCA it is 0.179; for GGCCGGCAUGAUCCCAGCCUCCUCGCGGGCGCCGGCUGGGCAACAUUCCGAGGGGACCGUCCCCUCGGUAAUGGCGAAUGGGACCCA it is 0.359. With GGCCGGCAUGAUCCCAGCCUCCUCGCUGGCGCCGGCUGGGCAACAUCCCGAGGGGACCGUCCCCUCGGUAAUGGCGAAUGGGACCCA, the self-cleavage amounted to 0.475.

In the case of GGCCGGCAUGAUCCCAGCCUCCUCGCUGGCGCCGGCUGGGCAACAUGCCGAGGGGACCGUCCCCUCGGUAAUGGCGAAUGGGACCCA, the self-cleavage was determined as 0.58.

For the variant GGCCGGCAUGCUCCCAGCCUCCUCGCUGGCGCCGGAUGGGCAACAUUCCGAGGGGACCGUCCCCUCGGUAAUGGCGAAUGGGACCCA, the self-cleavage is 0.0536. Turning to GGCCGGCAUGCUCCCAGCCUCCUCGCUGGCGCCGGCUGGGCAACAUUCCGAGGGGACCGUCCCCUCGGUAAUGGCGAAUGGGACCCC, the self-cleavage worked out at 0.607. With GGCCGGCAUGCUCCCAGCCUCCUCGCUGGCGCCGGCUGGGCAACAUUCCGAGGGGACCGUCCCCUCGGUAAUGGCGAAUGGGACCCG the figure was 0.34. For the variant GGCCGGCAUGCUCCCAGCCUCCUCGCUGGCGCCGGCUGGGGAACAUUCCGAGGGGACCGUCCCCUCGGUAAUGGCGAAUGGGACCCA, the self-cleavage is 0.712.

Consider GGCCGGCAUGCUCCCAGCCUCCUCGCUGGCGCCGGCUGGGUAACAUUCCGAGGGGACCGUCCCCUCGGUAAUGGCGAAUGGGACCCA, for which the self-cleavage worked out at 0.0831. Consider GGCCGGCAUGCUCCCAGCCUCCUCGCUGGCGCCGGCUGGGCAACAUUCCGAGGGGACCGUCCCCUCGGUUAUGGCGAAUGGGACCCA, for which the self-cleavage turned out to be 0.399. Take GGCCGGCAUGAUCCCAGCCUCCUCGCUGGCGCCGGCUGGGCAACAUUCCGAGGGGACCGUCCCCUCGGUAAUGGCGAAGGGGACCCA: the self-cleavage worked out at 0.0923.

For the variant GGCCGGCAUGAUCCCAGCCUCCUCGCUGGCGCCGGCUGGGCAACAUUCCGAGGGGACCGUCCCCUCGGUAAUGGCGAAAGGGACCCA, the self-cleavage is 0.0652. On to GGCCGGCAUGCUCCCAGCCUCCUCGCUGGCGCCGGCUGGGCAACAUUCCGAGGGGACCGUCCCCUCGGUAAUGGCGAAUGGGACCCA, for which the self-cleavage came to 0.314. Regarding GGCCGGCAUGCUCCCAGCAUCCUCGCUGGCGCCGGCUGGGCAACAUUCCGAGGGGACCGUCCCCUCGGUAAUGGCGAAUGGGACCCA, the self-cleavage amounted to 0.0314. As to GGCCGGCAUGCUCCCAGCGUCCUCGCUGGCGCCGGCUGGGCAACAUUCCGAGGGGACCGUCCCCUCGGUAAUGGCGAAUGGGACCCA, the self-cleavage came to 0.0811.

On to GGCCGGCAUGCUCCCAGCUUCCUCGCUGGCGCCGGCUGGGCAACAUUCCGAGGGGACCGUCCCCUCGGUAAUGGCGAAUGGGACCCA, for which the self-cleavage is 0.0302. Regarding GGCCGGCAUGCUCCCAGACUCCUCGCUGGCGCCGGCUGGGCAACAUUCCGAGGGGACCGUCCCCUCGGUAAUGGCGAAUGGGACCCA, the self-cleavage was found to be 0.0804. With GGCCGGCAUGCUCCCAGUCUCCUCGCUGGCGCCGGCUGGGCAACAUUCCGAGGGGACCGUCCCCUCGGUAAUGGCGAAUGGGACCCA, the self-cleavage is 0.0992. Consider GGCCGGCAUGCUCCCCGCCUCCUCGCUGGCGCCGGCUGGGCAACAUUCCGAGGGGACCGUCCCCUCGGUAAUGGCGAAUGGGACCCA, for which the self-cleavage turned out to be 0.95. GGCCGGCAUGCUCCCAGCCUCCUCGCUGGCGACGGCUGGGCAACAUUCCGAGGGGACCGUCCCCUCGGUAAUGGCGAAUGGGACCCA: the self-cleavage was 0.0437.
